Holding throughout (assay): SPOT array
In assay [1] the target is T1, Yhr016c SH3 (YSC84_YEAST), P32793.
T1 chain: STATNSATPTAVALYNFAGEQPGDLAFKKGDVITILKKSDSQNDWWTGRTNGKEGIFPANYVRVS

The target in assay [2] is T2, Myo5 SH3 (MYO5_YEAST), Q04439.
T2 chain: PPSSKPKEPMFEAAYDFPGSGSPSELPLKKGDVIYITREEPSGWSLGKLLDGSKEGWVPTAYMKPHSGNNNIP

In assay [3] the target is T3, Boi2 SH3 (BOI2_YEAST), P39969.
T3 chain: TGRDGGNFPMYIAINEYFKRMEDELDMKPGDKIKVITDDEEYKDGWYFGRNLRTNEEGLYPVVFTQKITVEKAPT

Assay [4] deals with Sho1 SH3 (SHO1_YEAST), P40073.
Sho1 SH3 (SHO1_YEAST), P40073, sequence (P40073 295-366): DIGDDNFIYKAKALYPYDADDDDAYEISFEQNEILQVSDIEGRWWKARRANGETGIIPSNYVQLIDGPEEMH
For assay [5], the target named is T4, Boi1 SH3 (BOI1_YEAST), P38041.
T4 chain: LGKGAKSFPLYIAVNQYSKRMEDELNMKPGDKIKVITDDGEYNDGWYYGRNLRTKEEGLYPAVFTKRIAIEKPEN

The target in assay [6] is T5, Rvs167 SH3 (RV167_YEAST), P39743.
T5 chain: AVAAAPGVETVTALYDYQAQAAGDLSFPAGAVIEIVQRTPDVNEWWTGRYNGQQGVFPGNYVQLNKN

Assay [7] concerns the target T6, Yfr024 SH3 (LSB3_YEAST), P43603.
T6 chain: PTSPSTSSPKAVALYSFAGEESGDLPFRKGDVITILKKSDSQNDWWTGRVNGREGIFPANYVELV

For 14 molecules, normalised SPOT signal, Boehringer light units (BLU); mean over the file's lines of this peptide results are on record in PMC314469, “Protein Interaction Networks by Proteome Peptide Scanning” (PLoS Biology, 2004).

As to DSYSRSRPTRPLGY [YNL165W 293-306], the normalised SPOT signal, Boehringer light units (BLU); mean over the file's lines of this peptide amounted to 177 in assay [1]; 261 in assay [2]; 37.1 in assay [3]; 52.1 in assay [4]; 13600 in assay [5]; 354 in assay [6]. Also, in assay [7], the normalised SPOT signal, Boehringer light units (BLU); mean over the file's lines of this peptide stood at 2260.
Take EEKVKRTPPLPPVP [YOL093W 10-23]: the normalised SPOT signal, Boehringer light units (BLU); mean over the file's lines of this peptide in assay [1] stood at 45.9; in assay [2], 587; in assay [3], 17.7; in assay [4], 48.2; in assay [5], 108; in assay [6], 125. The molecule further displayed a normalised SPOT signal, Boehringer light units (BLU); mean over the file's lines of this peptide in assay [7] of 99.
EFDEKLPPKKPAGP [YMR072W 109-122]: the normalised SPOT signal, Boehringer light units (BLU); mean over the file's lines of this peptide in assay [1] is 16.2; in assay [2] it was 87.3; in assay [3], 2; in assay [4], 38.9; in assay [5], 40.4; in assay [6], 32.7. The molecule also registered a normalised SPOT signal, Boehringer light units (BLU); mean over the file's lines of this peptide in assay [7] of 72.6.
Consider DSVLRQKPDKPRPI [YMR032W 380-393], for which the normalised SPOT signal, Boehringer light units (BLU); mean over the file's lines of this peptide in assay [1] is 9.2; in assay [2], 135; in assay [3] it was 10.2; in assay [4], 26.5; in assay [5], 1240; in assay [6], 43.8. The same molecule registered a normalised SPOT signal, Boehringer light units (BLU); mean over the file's lines of this peptide in assay [7] of 114.
With DRLSKIKPFLPQSI [YLR247C 271-284], the normalised SPOT signal, Boehringer light units (BLU); mean over the file's lines of this peptide in assay [1] worked out at 37.2; in assay [2], 226; in assay [3] it was 16.3; in assay [4] it was 237; in assay [5], 804; in assay [6] it was 154. The molecule further came in with a normalised SPOT signal, Boehringer light units (BLU); mean over the file's lines of this peptide in assay [7] of 136.
For the molecule DTYARNNPDFPPQN [YDR164C 226-239], the normalised SPOT signal, Boehringer light units (BLU); mean over the file's lines of this peptide was determined as 39.1 in assay [1]; 138 in assay [2]; 31.6 in assay [3]; 4.9 in assay [4]; 118 in assay [5]; 46.3 in assay [6]. Also, in assay [7], the normalised SPOT signal, Boehringer light units (BLU); mean over the file's lines of this peptide turned out to be 17.2.
As for EDLVKKPPFIPSPT [YDR219C 208-221], the normalised SPOT signal, Boehringer light units (BLU); mean over the file's lines of this peptide in assay [1] amounted to 2.1; in assay [2] it was 756; in assay [3], 17.3; in assay [4] it was 17.6; in assay [5], 40.9; in assay [6], 13.6. In assay [7], the normalised SPOT signal, Boehringer light units (BLU); mean over the file's lines of this peptide turned out to be 0.
For the molecule DYRPKSIPSPPNGI [YML034W 511-524], the normalised SPOT signal, Boehringer light units (BLU); mean over the file's lines of this peptide was 36.2 in assay [1]; 154 in assay [2]; 6 in assay [3]; 23.7 in assay [4]; 75.6 in assay [5]; 19.7 in assay [6]. In assay [7], the normalised SPOT signal, Boehringer light units (BLU); mean over the file's lines of this peptide is 38.5.
EEEAKSVPPIPADQ [YOL027C 550-563]: the normalised SPOT signal, Boehringer light units (BLU); mean over the file's lines of this peptide came to 56.7 in assay [1]; 29.4 in assay [2]; 4.5 in assay [3]; 10.6 in assay [4]; 114 in assay [5]; 42.8 in assay [6]. The normalised SPOT signal, Boehringer light units (BLU); mean over the file's lines of this peptide in assay [7] is 0.
In the case of EEQVKSNPNRPIYW [YGR234W 292-305], the normalised SPOT signal, Boehringer light units (BLU); mean over the file's lines of this peptide in assay [1] came to 30.2; in assay [2] it was 110; in assay [3], 23.1; in assay [4], 24.8; in assay [5] it was 149; in assay [6] it was 13.3. In assay [7], the normalised SPOT signal, Boehringer light units (BLU); mean over the file's lines of this peptide is 140.
In the case of EEQVKEKPNEPEGK [YLL021W 188-201], the normalised SPOT signal, Boehringer light units (BLU); mean over the file's lines of this peptide was 23.2 in assay [1]; 134 in assay [2]; 28.7 in assay [3]; 30.7 in assay [4]; 25.7 in assay [5]; 22.8 in assay [6]. The normalised SPOT signal, Boehringer light units (BLU); mean over the file's lines of this peptide in assay [7] was determined as 0.
In the case of DVNHRYPPMAPTTV [YPR008W 508-521], the normalised SPOT signal, Boehringer light units (BLU); mean over the file's lines of this peptide in assay [1] was found to be 15.7; in assay [2], 176; in assay [3], 34; in assay [4], 39.1; in assay [5], 57.4; in assay [6] it was 52.3. The molecule further came in with a normalised SPOT signal, Boehringer light units (BLU); mean over the file's lines of this peptide in assay [7] of 21.3.
Regarding EELARVTPLTPKEY [YDL195W 1179-1192], the normalised SPOT signal, Boehringer light units (BLU); mean over the file's lines of this peptide in assay [1] is 11.8; in assay [2], 182; in assay [3], 41.9; in assay [4] it was 54.5; in assay [5], 65.7; in assay [6] it was 75.6. The molecule further yielded a normalised SPOT signal, Boehringer light units (BLU); mean over the file's lines of this peptide in assay [7] of 25.2.
In the case of DRKNRAPPQRPRFN [YER131W 91-104], the normalised SPOT signal, Boehringer light units (BLU); mean over the file's lines of this peptide in assay [1] is 162; in assay [2], 2430; in assay [3], 24.1; in assay [4], 134; in assay [5], 4240; in assay [6] it was 332. Also, the normalised SPOT signal, Boehringer light units (BLU); mean over the file's lines of this peptide in assay [7] stood at 3740.
